Reference: patent US20010029034A1

Tests used:
[1] = test system: T1, first Kunitz-type domain of the TFPI-3 protein (TFPI-3-1), His-tagged, expressed in E. coli
T1 sequence: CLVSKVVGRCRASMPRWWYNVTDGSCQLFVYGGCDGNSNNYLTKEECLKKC

[2] = test system: His-tagged Cripto (a TGF-a family member)
[3] = target: Trypsin (Sigma); experiment: cell-based or functional assay

Substance	trypsin activity on TAME substrate (absorbance at 247 nm), 1.25 dose of TFPI-3-1 [1]	trypsin activity on TAME substrate (absorbance at 247 nm), 2.50 dose of TFPI-3-1 [1]	trypsin activity on TAME substrate, same concentrations of Cripto as control [2]	trypsin activity inhibited, 5.00 dose of TFPI-3-1 [3] [%]	trypsin activity left against buffer only samples, 10 of TFPI-3-1, duplicate samples [3] [%]	trypsin activity left against the buffer-only control, 10.00 dose of TFPI-3-1 [3] [%]
Trypsin (Sigma)	did not appear to inhibit trypsin activity at 1.25 and 2.50 mg doses	did not appear to inhibit trypsin activity at 1.25 and 2.50 mg doses	no trypsin inhibiting activity could be observed			
first Kunitz-type domain of the TFPI-3 protein (TFPI-3-1), His-tagged, expressed in E. coli (from UniProt O43291 38-88)				60	7	13
